The supplement of paper PMC10567573

B1: KLHDC10 (parent)
chain: CPIIRIPNRFLRGHRPPPARSGHR

Variants of: B1
Assay: protein stability index of a GFP-peptide fusion (GPS, HEK-293T) (PSI 1-6); higher = more stable
Details: c terminus: a fixed tail appended
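Further: lentivirally expressed fusions sorted by FACS into six bins by GFP to DsRed ratio, PSI derived from sequencing read proportions per bin multiplied by bin number.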

Variant	protein stability index
CPIIRIPNRFLRGHRPPDARSGHR	1.49
CPIIRIPNRFLRGHRPPVARSGHR	2.27
CPIIRIPNRFLRGHRPPYARSGHR	1.91
CPIIRIPNRFLRGHRPPFARSGHR	1.62
CPIIRIPNRFLRGHRPPTARSGHR	1.92
CPIIRIPNRFLRGHRPPEARSGHR	1.78
CPIIRIPNRFLRGHRPPHARSGHR	2.37
CPIIRIPNRFLRGHRPPPARVGHR	1.62
CPIIRIPNRFLRGHRPPPARIGHR	1.36
CPIIRIPNRFLRGHRPPPARRGHR	1.97
CPIIRIPNRFLRGHRPPPARGGHR	2.63
CPIIRIPNRFLRGHRPPPARKGHR	1.65
CPIIRIPNRFLRGHRPPPARAGHR	1.85
CPIIRIPNRFLRGHRPPPARTGHR	1.83
CPIIRLPNRFLRGHRPPPARSGHR	4.07
CPIIRRPNRFLRGHRPPPARSGHR	3.69
CPIIRGPNRFLRGHRPPPARSGHR	3.96
CPIIREPNRFLRGHRPPPARSGHR	3.98
CPIIRFPNRFLRGHRPPPARSGHR	4.26
CPIIRHPNRFLRGHRPPPARSGHR	4.75
CIIIRIPNRFLRGHRPPPARSGHR	2.6
CDIIRIPNRFLRGHRPPPARSGHR	2.32
CPIIRIPNRFLRGHRPPPARSGHA	2.37
CPIIRIPNRFLRGHRPPPARSGHM	1.93

Variant	protein stability index
CPIIRIPNRFLRGHRPPPARSGHV	2.54
CPIIRIPNRFLRGHRPPPARSGHN	1.84
CPIIRIPNRFLRGHRPPPARSGHC	1.82
CPIIRIPNRFLRGHRPPPARSGHL	2.61
CPIIRIPNRFLRGHRPPPARSGHF	1.31
CPIIRIPNRFLRGHRPPPARSGHD	2.93
CPIIRIPNRFLRGHRPPPARSGHI	2.99
CPIIRIPNRFLRGHRPPPARSGHS	2.03
CPIIRIPNRFLRGHRPPPARSGHP	2.33
CPIIFIPNRFLRGHRPPPARSGHR	2.62
CPIIPIPNRFLRGHRPPPARSGHR	3.89
CPIIKIPNRFLRGHRPPPARSGHR	3.59
CPIIHIPNRFLRGHRPPPARSGHR	3.85
CPIITIPNRFLRGHRPPPARSGHR	3.81
CPIIQIPNRFLRGHRPPPARSGHR	3.54
CPIIYIPNRFLRGHRPPPARSGHR	2.51
CPIILIPNRFLRGHRPPPARSGHR	1.55
CPIIRIPNRFLRGHRPPPQRSGHR	1.48
CPIIRIPNRFLRGHRPPPIRSGHR	1.4
CPIIRIPNRFLRGHRPPPVRSGHR	1.48
CPIIRIPNRFLRGHRPPPFRSGHR	1.69
CPIIRIPNRFLRGHRPPPMRSGHR	2.12
CPIIRIPNRFLRGHRPPPRRSGHR	2.02
CPIIRIPNRFLRGHRPPPWRSGHR	1.69

Variant	protein stability index
CPIIRIPNRFTRGHRPPPARSGHR	1.96
CPIIRIPNRFQRGHRPPPARSGHR	1.35
CPIIRIPNRFFRGHRPPPARSGHR	1.84
CPIIRIPNRFKRGHRPPPARSGHR	3.08
CPIIRIPNRFYRGHRPPPARSGHR	2
FPIIRIPNRFLRGHRPPPARSGHR	2.15
WPIIRIPNRFLRGHRPPPARSGHR	1.59
YPIIRIPNRFLRGHRPPPARSGHR	1.97
APIIRIPNRFLRGHRPPPARSGHR	4.28
RPIIRIPNRFLRGHRPPPARSGHR	3.57
HPIIRIPNRFLRGHRPPPARSGHR	2.91
SPIIRIPNRFLRGHRPPPARSGHR	3.41
EPIIRIPNRFLRGHRPPPARSGHR	3.76
PPIIRIPNRFLRGHRPPPARSGHR	3.87
CPIIRIPNRFLRGHRMPPARSGHR	2.33
CPIIRIPNRFLRGHRGPPARSGHR	1.42
CPIIRIPNRFLRGHRDPPARSGHR	1.72
CPIIRIPNRFLRGHREPPARSGHR	1.92
CPIIRIPNRFLRGHRVPPARSGHR	1.23
CPIIRIPNRFLRGHRTPPARSGHR	2.38
CPIIRIPNRFLRGHRLPPARSGHR	1.85
CPIIRIPNRFLRGHRQPPARSGHR	2.1
CPIIRIPNRFLRGHRPPPATSGHR	2.51
CPIIRIPNRFLRGHRPPPAASGHR	2.48

Variant	protein stability index
CPIIRIPNRFLRGHRPPPAQSGHR	1.93
CPIIRIPNRFLRGHRPPPAFSGHR	2.81
CPIIRIPNRFLRGHRPPPADSGHR	2.73
CPIIRIPNRFLRGHRPPPAWSGHR	1.75
CPIIRIPNRFLRGHRPPPAVSGHR	2.62
CPIIRIPNRFLRGHRPPPALSGHR	2.45
CPIIRIPNRFLRGHRPPPAPSGHR	2.16
CPIIRIPNRELRGHRPPPARSGHR	1.71
CPIIRIPNRTLRGHRPPPARSGHR	2.11
CPIIRIPNRCLRGHRPPPARSGHR	2.48
CPIIRIPNRRLRGHRPPPARSGHR	2.65
CPIIRIPNRQLRGHRPPPARSGHR	2.63
CPIIRIPNRGLRGHRPPPARSGHR	1.81
CPIIRIPNRFLRGWRPPPARSGHR	2.89
CPIIRIPNRFLRGFRPPPARSGHR	1.83
CPIIRIPNRFLRGVRPPPARSGHR	2.46
CPIIRIPNRFLRGKRPPPARSGHR	2.57
CPIIRIPNRFLRGDRPPPARSGHR	1.69
CPIIRIPNRFLRGTRPPPARSGHR	1.74
CPIIRIPNRFLRGNRPPPARSGHR	1.89
CPIIRIPNRFLRGYRPPPARSGHR	1.33
CPIIRITNRFLRGHRPPPARSGHR	2.23
CPIIRIKNRFLRGHRPPPARSGHR	2.7
CPIIRIWNRFLRGHRPPPARSGHR	3.51

Variant	protein stability index
CPIIRIRNRFLRGHRPPPARSGHR	3.66
CPIIRIFNRFLRGHRPPPARSGHR	2.28
CPIIRICNRFLRGHRPPPARSGHR	1.89
CPIIRIDNRFLRGHRPPPARSGHR	2.91
CPIIRISNRFLRGHRPPPARSGHR	3.13
CPIIRIINRFLRGHRPPPARSGHR	2.39
CPIIRIENRFLRGHRPPPARSGHR	1.57
CPIIRINNRFLRGHRPPPARSGHR	2.6
CPIIRIANRFLRGHRPPPARSGHR	2.38
CPIIRIPNRFLRGHSPPPARSGHR	1.69
CPIIRIPNRFLRGHCPPPARSGHR	1.68
CPIIRIPNRFLRGHLPPPARSGHR	1.05
CPIIRIPNRFLRGHNPPPARSGHR	2.3
CPIIRIPNRFLRGHTPPPARSGHR	1.73
CPIIRIPNRFLRGHAPPPARSGHR	1.3
CPIIRIPNRFLRGHDPPPARSGHR	2.11
CPIIRIPNRFLRGHRPPPARSGNR	2.43
CPIIRIPNRFLRGHRPPPARSGFR	1.52
CPIIRIPNRFLRGHRPPPARSGRR	1.67
CPIIRIPNRFLRGHRPPPARSGSR	1.02
CPIIRIPNRFLRGHRPPPARSGKR	1.5
CPIIRIPNRFLRGHRPPPARSGAR	1.85
CPIIRIPNRFLRGHRPPPARSGQR	2.06
CPIIRIPNRFLRGHRPPPARSGDR	1.38

Variant	protein stability index
CPIIRIPNRFLRGHRPPPARSGTR	2.66
CPIIRIPRRFLRGHRPPPARSGHR	2.54
CPIIRIPWRFLRGHRPPPARSGHR	2.59
CPIIRIPKRFLRGHRPPPARSGHR	2.42
CPIIRIPHRFLRGHRPPPARSGHR	2.69
CPIIRIPIRFLRGHRPPPARSGHR	2.36
CPIIRIPVRFLRGHRPPPARSGHR	2.79
CPIIRIPARFLRGHRPPPARSGHR	1.46
CPIIRIPERFLRGHRPPPARSGHR	2.15
CPIIRIPTRFLRGHRPPPARSGHR	2.52
CPIIRIPMRFLRGHRPPPARSGHR	1.97
CPIIRIPQRFLRGHRPPPARSGHR	1.3
CPIIRIPNRFLRGHRPNPARSGHR	2.2
CPIIRIPNRFLRGHRPRPARSGHR	2.34
CPIIRIPNRFLRGHRPHPARSGHR	1.76
CPIIRIPNRFLRGHRPIPARSGHR	1.93
CPIIRIPNRFLRGHRPLPARSGHR	2.28
CPIIRIPNRFLRGHRPVPARSGHR	3.32
CPIIRIPNRFLRGHRPAPARSGHR	2.28
CPIIRIPNRFLRGHRPMPARSGHR	1.8
CPIIRIPNRFLRGHRPQPARSGHR	1.57
CPIIRIPNRFLRGHRPEPARSGHR	1.93
CPIIRIPNRFLRGHRPGPARSGHR	2.09
CPIIRIPNRFLRGHRPPPARSLHR	2.02

Variant	protein stability index
CPIIRIPNRFLRGHRPPPARSEHR	1.78
CPIIRIPNRFLRGHRPPPARSCHR	1.62
CPIIRIPNRFLRGHRPPPARSYHR	1.98
CPIIRIPNRFLRGHRPPPARSIHR	1.82
CPIIRIPNRFLRGHRPPPARSTHR	2.39
CPIIRIPNRFLRGHRPPPARSHHR	1.84
CPIIRIPNRFLRGHRPPPARSNHR	1.95
CPIIRIPNRFLRGHRPPPARSFHR	2.01
CPVIRIPNRFLRGHRPPPARSGHR	1.71
CPCIRIPNRFLRGHRPPPARSGHR	1.78
CPEIRIPNRFLRGHRPPPARSGHR	3.25
CPTIRIPNRFLRGHRPPPARSGHR	2.36
CPRIRIPNRFLRGHRPPPARSGHR	2.62
CPIIRIPNKFLRGHRPPPARSGHR	1.37
CPIIRIPNMFLRGHRPPPARSGHR	1.42
CPIIRIPNVFLRGHRPPPARSGHR	2.43
CPIIRIPNGFLRGHRPPPARSGHR	1.53
CPIIRIPNDFLRGHRPPPARSGHR	2.1
CPIIRIPNQFLRGHRPPPARSGHR	2.47
CPIIRIPNYFLRGHRPPPARSGHR	1.71
CPIIRIPNTFLRGHRPPPARSGHR	1.46
CPIIRIPNFFLRGHRPPPARSGHR	2.94
CPIIRIPNCFLRGHRPPPARSGHR	2.48
CPIIRIPNNFLRGHRPPPARSGHR	2.01

Variant	protein stability index
CPIIRIPNRFLRTHRPPPARSGHR	2.65
CPIIRIPNRFLRIHRPPPARSGHR	2.04
CPIIRIPNRFLRRHRPPPARSGHR	1.74
CPIIRIPNRFLRAHRPPPARSGHR	2.21
CPIIRIPNRFLRWHRPPPARSGHR	2
CPIIRIPNRFLRLHRPPPARSGHR	1.85
CPIPRIPNRFLRGHRPPPARSGHR	4.21
CPIRRIPNRFLRGHRPPPARSGHR	4.37
CPIDRIPNRFLRGHRPPPARSGHR	4.49
CPIGRIPNRFLRGHRPPPARSGHR	3.77
CPIVRIPNRFLRGHRPPPARSGHR	2.42
CPIERIPNRFLRGHRPPPARSGHR	4.56
CPIIRIPNRFLAGHRPPPARSGHR	1.71
CPIIRIPNRFLPGHRPPPARSGHR	1.63
CPIIRIPNRFLSGHRPPPARSGHR	1.9
CPIIRIPNRFLQGHRPPPARSGHR	2.07
CPIIRIPNRFLTGHRPPPARSGHR	2.02
CPIIRIPNRFLVGHRPPPARSGHR	2.75
CPIIRIPNRFLHGHRPPPARSGHR	2.69
CPIIRIPNRFLDGHRPPPARSGHR	1.92
